Laboratory results: the supplement of paper PMC10567573

B1: TRIM43 (parent)
chain: RAQMIRNEYRKLHPVLHKEEKQHL
B2: EHMT1 (parent)
chain: EEINKNISDFGRQQLLPPFPSLHQ
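Note: lentivirally expressed fusions sorted by FACS into six bins by GFP to DsRed ratio, PSI derived from sequencing read proportions per bin multiplied by bin number.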

Variants of: B1
Experiment: protein stability index of a GFP-peptide fusion (GPS, HEK-293T) (PSI 1-6); higher = more stable
Conditions: c terminus: a fixed tail appended
Work on RAMMIRNEYRKLHPVLHKEEKQHL [Q3M] yielded a protein stability index of 2.82.
In the case of RAAMIRNEYRKLHPVLHKEEKQHL [Q3A], the protein stability index is reported as 2.67.
With RAIMIRNEYRKLHPVLHKEEKQHL [Q3I] the protein stability index was 2.78.
In the case of RADMIRNEYRKLHPVLHKEEKQHL [Q3D], the protein stability index is reported as 3.64.
For RAKMIRNEYRKLHPVLHKEEKQHL [Q3K], the protein stability index was 3.7.
Work on RAEMIRNEYRKLHPVLHKEEKQHL [Q3E] yielded a protein stability index of 3.48.
RACMIRNEYRKLHPVLHKEEKQHL [Q3C] gave a protein stability index of 2.68.
Work on RALMIRNEYRKLHPVLHKEEKQHL [Q3L] yielded a protein stability index of 2.41.
RAGMIRNEYRKLHPVLHKEEKQHL [Q3G] gave a protein stability index of 3.04.
In the case of RAFMIRNEYRKLHPVLHKEEKQHL [Q3F], the protein stability index is reported as 2.33.
Work on RAHMIRNEYRKLHPVLHKEEKQHL [Q3H] yielded a protein stability index of 3.13.
QAQMIRNEYRKLHPVLHKEEKQHL [R1Q] showed a protein stability index of 3.04.
Variant YAQMIRNEYRKLHPVLHKEEKQHL [R1Y] has a protein stability index of 1.77.
NAQMIRNEYRKLHPVLHKEEKQHL [R1N] gave a protein stability index of 3.44.
For IAQMIRNEYRKLHPVLHKEEKQHL [R1I], the protein stability index was 2.01.
For KAQMIRNEYRKLHPVLHKEEKQHL [R1K], the protein stability index was 2.93.
For MAQMIRNEYRKLHPVLHKEEKQHL [R1M], the protein stability index was 2.47.
Variant LAQMIRNEYRKLHPVLHKEEKQHL [R1L] has a protein stability index of 2.33.
With AAQMIRNEYRKLHPVLHKEEKQHL [R1A] the protein stability index was 3.44.
TAQMIRNEYRKLHPVLHKEEKQHL [R1T] showed a protein stability index of 2.85.
With WAQMIRNEYRKLHPVLHKEEKQHL [R1W] the protein stability index was 1.92.
CAQMIRNEYRKLHPVLHKEEKQHL [R1C] showed a protein stability index of 2.17.
With PAQMIRNEYRKLHPVLHKEEKQHL [R1P] the protein stability index was 3.38.
With GAQMIRNEYRKLHPVLHKEEKQHL [R1G] the protein stability index was 3.55.
In the case of SAQMIRNEYRKLHPVLHKEEKQHL [R1S], the protein stability index is reported as 3.78.
Variant DAQMIRNEYRKLHPVLHKEEKQHL [R1D] has a protein stability index of 3.89.
FAQMIRNEYRKLHPVLHKEEKQHL [R1F] gave a protein stability index of 1.92.
With EAQMIRNEYRKLHPVLHKEEKQHL [R1E] the protein stability index was 3.29.
Work on HAQMIRNEYRKLHPVLHKEEKQHL [R1H] yielded a protein stability index of 3.47.
With VAQMIRNEYRKLHPVLHKEEKQHL [R1V] the protein stability index was 3.99.
Variant RFQMIRNEYRKLHPVLHKEEKQHL [A2F] has a protein stability index of 1.95.
Variant RNQMIRNEYRKLHPVLHKEEKQHL [A2N] has a protein stability index of 3.18.
RHQMIRNEYRKLHPVLHKEEKQHL [A2H] showed a protein stability index of 3.26.
For RMQMIRNEYRKLHPVLHKEEKQHL [A2M], the protein stability index was 2.91.
With RSQMIRNEYRKLHPVLHKEEKQHL [A2S] the protein stability index was 2.99.
Work on RKQMIRNEYRKLHPVLHKEEKQHL [A2K] yielded a protein stability index of 3.2.
RCQMIRNEYRKLHPVLHKEEKQHL [A2C] gave a protein stability index of 3.35.
With RVQMIRNEYRKLHPVLHKEEKQHL [A2V] the protein stability index was 2.78.
Work on RWQMIRNEYRKLHPVLHKEEKQHL [A2W] yielded a protein stability index of 2.27.
Work on REQMIRNEYRKLHPVLHKEEKQHL [A2E] yielded a protein stability index of 4.26.
RLQMIRNEYRKLHPVLHKEEKQHL [A2L] gave a protein stability index of 2.96.
RPQMIRNEYRKLHPVLHKEEKQHL [A2P] gave a protein stability index of 3.84.
Variant RIQMIRNEYRKLHPVLHKEEKQHL [A2I] has a protein stability index of 2.14.
Work on RYQMIRNEYRKLHPVLHKEEKQHL [A2Y] yielded a protein stability index of 3.13.
For RRQMIRNEYRKLHPVLHKEEKQHL [A2R], the protein stability index was 3.76.
In the case of RDQMIRNEYRKLHPVLHKEEKQHL [A2D], the protein stability index is reported as 3.51.
Work on RQQMIRNEYRKLHPVLHKEEKQHL [A2Q] yielded a protein stability index of 3.09.
Work on RGQMIRNEYRKLHPVLHKEEKQHL [A2G] yielded a protein stability index of 3.61.
In the case of RTQMIRNEYRKLHPVLHKEEKQHL [A2T], the protein stability index is reported as 3.17.

Variants of: B2
Experiment: as above
Conditions: c terminus: a fixed tail appended
Work on EEINKNISDFGRQQLLPPFPSLHY [Q24Y] yielded a protein stability index of 2.49.
For EEINKNISDFGRQQLLPPFPSLHP [Q24P], the protein stability index was 3.43.
EEINKNISDFGRQQLLPPFPSLHD [Q24D] gave a protein stability index of 4.02.
EEINKNISDFGRQQLLPPFPSLHV [Q24V] gave a protein stability index of 2.65.
For EEINKNISDFGRQQLLPPFPSLHR [Q24R], the protein stability index was 2.96.
Variant EEINKNISDFGRQQLLPPFPSLHN [Q24N] has a protein stability index of 2.9.
EEINKNISDFGRQQLLPPFPSLHA [Q24A] gave a protein stability index of 2.42.
In the case of EEINKNISDFGRQQLLPPFPSLHG [Q24G], the protein stability index is reported as 2.53.
EEINKNISDFGRQQLLPPFPSLHF [Q24F] showed a protein stability index of 2.81.
For EEINKNISDFGRQQLLPPFPSLHC [Q24C], the protein stability index was 1.91.
EEINKNISDFGRQQLLPPFPSLHL [Q24L] showed a protein stability index of 3.78.
EEINKNISDFGRQQLLPPFPSLHW [Q24W] showed a protein stability index of 3.45.
EEINKNISDFGRQQLLPPFPSLHK [Q24K] showed a protein stability index of 3.55.
In the case of EEINKNISDFGRQQLLPPFPSLHH [Q24H], the protein stability index is reported as 2.43.
For EEINKNISDFGRQQLLPPFPSLHS [Q24S], the protein stability index was 2.5.
Variant EEINKNISDFGRQQLLPPFPSLHM [Q24M] has a protein stability index of 2.77.
EEINKNISDFGRQQLLPPFPSLHT [Q24T] showed a protein stability index of 2.34.
EEINKNISDFGRQQLLPPFPSLHI [Q24I] showed a protein stability index of 2.17.
In the case of EEINKNISDFGRQQLLPPFPSLHE [Q24E], the protein stability index is reported as 4.23.
Work on EEINKNISDFGRQQLLPPFPSLLQ [H23L] yielded a protein stability index of 2.53.
In the case of EEINKNISDFGRQQLLPPFPSLSQ [H23S], the protein stability index is reported as 2.86.
Work on EEINKNISDFGRQQLLPPFPSLTQ [H23T] yielded a protein stability index of 3.39.
Work on EEINKNISDFGRQQLLPPFPSLDQ [H23D] yielded a protein stability index of 3.85.
For EEINKNISDFGRQQLLPPFPSLYQ [H23Y], the protein stability index was 2.14.
With EEINKNISDFGRQQLLPPFPSLGQ [H23G] the protein stability index was 3.14.
Variant EEINKNISDFGRQQLLPPFPSLMQ [H23M] has a protein stability index of 2.48.
EEINKNISDFGRQQLLPPFPSLRQ [H23R] showed a protein stability index of 3.08.
Variant EEINKNISDFGRQQLLPPFPSLNQ [H23N] has a protein stability index of 3.07.
In the case of EEINKNISDFGRQQLLPPFPSLEQ [H23E], the protein stability index is reported as 3.59.
EEINKNISDFGRQQLLPPFPSLIQ [H23I] gave a protein stability index of 2.93.
Variant EEINKNISDFGRQQLLPPFPSLAQ [H23A] has a protein stability index of 3.4.
With EEINKNISDFGRQQLLPPFPSLPQ [H23P] the protein stability index was 3.17.
In the case of EEINKNISDFGRQQLLPPFPSLWQ [H23W], the protein stability index is reported as 2.6.
With EEINKNISDFGRQQLLPPFPSLKQ [H23K] the protein stability index was 3.61.
For EEINKNISDFGRQQLLPPFPSLVQ [H23V], the protein stability index was 2.97.
For EEINKNISDFGRQQLLPPFPSLCQ [H23C], the protein stability index was 2.66.
EEINKNISDFGRQQLLPPFPSLFQ [H23F] showed a protein stability index of 2.38.
Variant EEINKNISDFGRQQLLPPFPSLQQ [H23Q] has a protein stability index of 3.02.
Work on EEINKNISDFGRQQLLPPFPSYHQ [L22Y] yielded a protein stability index of 2.47.
EEINKNISDFGRQQLLPPFPSTHQ [L22T] gave a protein stability index of 3.85.
In the case of EEINKNISDFGRQQLLPPFPSWHQ [L22W], the protein stability index is reported as 2.57.
With EEINKNISDFGRQQLLPPFPSVHQ [L22V] the protein stability index was 3.21.
EEINKNISDFGRQQLLPPFPSRHQ [L22R] showed a protein stability index of 3.62.
With EEINKNISDFGRQQLLPPFPSQHQ [L22Q] the protein stability index was 3.65.
In the case of EEINKNISDFGRQQLLPPFPSSHQ [L22S], the protein stability index is reported as 4.33.
